One data set has as its target SARS-CoV-1 RBD (SARS-CoV-1, UniProt P59594 306-527). Particulars: protein: commercial; label: 3'-biotin-TEG (SPR).
The next data set concerns the target MERS-CoV RBD (MERS-CoV, UniProt K9N5Q8 367-606). To be noted: protein: commercial; label: 3'-biotin-TEG (SPR).
The target in data set [1] is SARS-CoV-2 spike S1 subunit (SARS-CoV-2, UniProt P0DTC2 16-685). The data set can be described thus: SPR. To be noted: protein: commercial.

What is called Kd is a measure of binding affinity in units of concentration. Higher therefore signals lower affinity. For the molecule GGGTGAATCTATGGGGTGGGCAGGGG (XNA) [SPA1-M13], the dissociation constant Kd in the data set with SARS-CoV-1 RBD came to 8.7 nM; in the data set with MERS-CoV RBD it was 4 nM.
On to GGGTGAATCTATGGGGTGGGCAGGGG (XNA) [SPA1-M12], for which the binding result in data set [1] is given as “binds”.

Values taken from publication PMC10993888.
